Measured values published in patent publication US12467929.
Values belong to the substance of their own block, whether it stands above or below them.

What was measured:
[1] = molecular target: recombinant UBE3A protein (Homo sapiens (Human)) (UniProt Q05086); assay: 2-step Simoa; capture GTX; UBE3A 125 ng/ml
[2] = molecular target: recombinant UBE3A protein (Homo sapiens (Human)) (UniProt Q05086); assay: Simoa; capture GTX; 3E5 0.2 ug/ml; UBE3A 0.00128 ng/ml
[3] = molecular target: recombinant UBE3A protein (Homo sapiens (Human)) (UniProt Q05086); assay: Simoa; capture GTX; 3E5 0.4 ug/ml; UBE3A 0.800 ng/ml
[4] = molecular target: recombinant UBE3A protein (Homo sapiens (Human)) (UniProt Q05086); assay: 3-step Simoa, 120 min bead step; capture GTX; UBE3A 20.0 ng/ml
[5] = molecular target: recombinant UBE3A protein (Homo sapiens (Human)) (UniProt Q05086); assay: Simoa; capture GTX, no helper beads; 3E5 0.4 ug/ml; UBE3A 0.0320 ng/ml
[6] = molecular target: recombinant UBE3A protein (Homo sapiens (Human)) (UniProt Q05086); assay: Simoa; capture GTX; 3E5 0.2 ug/ml; UBE3A 0.0320 ng/ml
[7] = molecular target: recombinant UBE3A protein (Homo sapiens (Human)) (UniProt Q05086); assay: Simoa; capture GTX, no helper beads; 3E5 0.1 ug/ml; UBE3A 0.0320 ng/ml
[8] = molecular target: recombinant UBE3A protein (Homo sapiens (Human)) (UniProt Q05086); assay: 3-step Simoa, 120 min bead step; capture GTX; UBE3A 4.00 ng/ml
[9] = molecular target: recombinant UBE3A protein (Homo sapiens (Human)) (UniProt Q05086); assay: Simoa; capture GTX, no helper beads; 3E5 0.1 ug/ml; UBE3A 4.00 ng/ml
[10] = molecular target: recombinant UBE3A protein (Homo sapiens (Human)) (UniProt Q05086); assay: 3-step Simoa, 120 min bead step; capture GTX; UBE3A 0.160 ng/ml
[11] = molecular target: recombinant UBE3A protein (Homo sapiens (Human)) (UniProt Q05086); assay: Simoa; capture GTX; 3E5 0.8 ug/ml; UBE3A 0.00640 ng/ml
[12] = molecular target: recombinant UBE3A protein (Homo sapiens (Human)) (UniProt Q05086); assay: Simoa; capture GTX + helper beads; 3E5 0.2 ug/ml; UBE3A 0.160 ng/ml
[13] = molecular target: recombinant UBE3A protein (Homo sapiens (Human)) (UniProt Q05086); assay: Simoa head-to-head, Table 11; capture GTX; UBE3A 0.80 ng/ml
[14] = molecular target: recombinant UBE3A protein (Homo sapiens (Human)) (UniProt Q05086); assay: Simoa; capture GTX; 3E5 0.2 ug/ml; UBE3A 0.800 ng/ml
[15] = molecular target: recombinant UBE3A protein (Homo sapiens (Human)) (UniProt Q05086); assay: Simoa head-to-head, Table 10; capture MS 2F6; UBE3A 0.16 ng/ml
[16] = molecular target: recombinant UBE3A protein (Homo sapiens (Human)) (UniProt Q05086); assay: 3-step Simoa, 120 min bead step; capture GTX; UBE3A 0.800 ng/ml
[17] = molecular target: recombinant UBE3A protein (Homo sapiens (Human)) (UniProt Q05086); assay: Simoa; capture GTX; 3E5 0.2 ug/ml; UBE3A 4.00 ng/ml
[18] = molecular target: recombinant UBE3A protein (Homo sapiens (Human)) (UniProt Q05086); assay: Simoa; capture GTX + helper beads; 3E5 0.4 ug/ml; UBE3A 0.00128 ng/ml
[19] = molecular target: recombinant UBE3A protein (Homo sapiens (Human)) (UniProt Q05086); assay: Simoa; capture GTX; 3E5 0.8 ug/ml; UBE3A 0.00128 ng/ml
[20] = molecular target: recombinant UBE3A protein (Homo sapiens (Human)) (UniProt Q05086); assay: Simoa; capture GTX; 3E5 0.1 ug/ml; UBE3A 0.800 ng/ml

UniProt Q05086, sequence (Q05086 whole entry): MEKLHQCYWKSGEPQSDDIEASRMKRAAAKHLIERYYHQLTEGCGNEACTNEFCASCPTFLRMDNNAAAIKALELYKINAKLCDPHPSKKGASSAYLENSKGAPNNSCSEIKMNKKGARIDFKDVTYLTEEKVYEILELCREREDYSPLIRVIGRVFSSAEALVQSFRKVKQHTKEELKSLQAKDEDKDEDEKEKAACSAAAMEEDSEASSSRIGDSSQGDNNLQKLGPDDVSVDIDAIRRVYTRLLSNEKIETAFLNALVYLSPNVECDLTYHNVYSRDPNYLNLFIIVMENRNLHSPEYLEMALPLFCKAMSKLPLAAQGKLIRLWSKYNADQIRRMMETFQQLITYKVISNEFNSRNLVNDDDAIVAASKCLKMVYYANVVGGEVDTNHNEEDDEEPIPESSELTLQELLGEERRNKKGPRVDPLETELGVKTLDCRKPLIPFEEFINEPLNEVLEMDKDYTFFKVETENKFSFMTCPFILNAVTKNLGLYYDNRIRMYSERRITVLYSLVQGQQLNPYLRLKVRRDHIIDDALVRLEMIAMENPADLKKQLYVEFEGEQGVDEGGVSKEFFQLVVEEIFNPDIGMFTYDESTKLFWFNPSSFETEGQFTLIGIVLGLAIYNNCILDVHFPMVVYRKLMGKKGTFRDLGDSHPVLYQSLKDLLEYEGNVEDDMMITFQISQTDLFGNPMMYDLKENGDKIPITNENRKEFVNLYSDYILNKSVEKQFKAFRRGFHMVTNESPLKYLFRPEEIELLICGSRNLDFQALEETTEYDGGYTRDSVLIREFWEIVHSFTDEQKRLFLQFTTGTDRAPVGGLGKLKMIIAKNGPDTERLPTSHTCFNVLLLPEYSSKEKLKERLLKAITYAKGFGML

AEB1 [1]: 0.263
AEB2 [1]: 0.241
Ave AEB [1]: 0.252
Signal to Background [1]: 77.1
Substance: NB500-240 (Novus) (antibody)

AEB1 [2]: 0.0457
AEB2 [2]: 0.0439
AEB3 [2]: 0.0421
Average AEB [2]: 0.0439
Signal to Background [2]: 1.12
AEB1 [3]: 0.509
AEB2 [3]: 0.48
AEB3 [3]: 0.478
Average AEB [3]: 0.489
Signal to Background [3]: 7.81
AEB1 [4]: 2.8
AEB2 [4]: 2.88
Ave AEB [4]: 2.84
Signal to Background [4]: 1660
AEB1 [5]: 0.0366
AEB2 [5]: 0.037
Average AEB [5]: 0.0368
Signal to Background [5]: 1.88
AEB1 [6]: 0.0619
AEB2 [6]: 0.0621
AEB3 [6]: 0.0587
Average AEB [6]: 0.0609
Signal to Background [6]: 1.55
AEB1 [7]: 0.0108
AEB2 [7]: 0.0159
Average AEB [7]: 0.0133
Signal to Background [7]: 2.33
AEB1 [8]: 0.533
AEB2 [8]: 0.55
Ave AEB [8]: 0.542
Signal to Background [8]: 318
AEB1 [9]: 0.607
AEB2 [9]: 0.603
Average AEB [9]: 0.605
Signal to Background [9]: 106
AEB1 [10]: 0.0398
AEB2 [10]: 0.0389
Ave AEB [10]: 0.0393
Signal to Background [10]: 23.1
AEB1 [11]: 0.114
AEB2 [11]: 0.127
AEB3 [11]: 0.117
Average AEB [11]: 0.12
Signal to Background [11]: 0.976
AEB1 [12]: 0.0751
AEB2 [12]: 0.0703
Average AEB [12]: 0.0727
Signal to Background [12]: 7.51
AEB1 [13]: 0.0916
AEB2 [13]: 0.0961
Ave AEB [13]: 0.0939
Signal to Background [13]: 11.5
AEB1 [14]: 0.355
AEB2 [14]: 0.378
AEB3 [14]: 0.358
Average AEB [14]: 0.364
Signal to Background [14]: 9.26
AEB1 [15]: 0.0183
AEB2 [15]: 0.0155
Ave AEB [15]: 0.0169
Signal to Background [15]: 1.25
AEB1 [16]: 0.151
AEB2 [16]: 0.154
Ave AEB [16]: 0.152
Signal to Background [16]: 89.4
AEB1 [17]: 1.18
AEB2 [17]: 2.32
AEB3 [17]: 1.18
Average AEB [17]: 1.56
Signal to Background [17]: 39.7
AEB1 [18]: 0.0222
AEB2 [18]: 0.0178
Average AEB [18]: 0.02
Signal to Background [18]: 1.02
AEB1 [19]: 0.109
AEB2 [19]: 0.109
AEB3 [19]: 0.112
Average AEB [19]: 0.11
Signal to Background [19]: 0.897
AEB1 [20]: 0.257
AEB2 [20]: 0.27
AEB3 [20]: 0.245
Average AEB [20]: 0.257
Signal to Background [20]: 13.3
Substance: anti-UBE3A antibody 3E5 (SAB1404508-100 ug, Millipore-Sigma)
